# Several values for one entry are separate records, joined by “and”; a condition that tells them apart may be missing. Equal entries are not always repeated.
# Key:
# human ROR1 [1] = target: T1, human ROR1 (human, UniProt Q01973 30-937); assay: cell-based or functional assay
# human CD3ε = target: T2, human CD3ε (human, UniProt P07766 23-207); assay: flow cytometry on Jurkat T cells
# T2 construct: whole, on cells; CD3 on human leukemic Jurkat T cells, as part of the TCR/CD3 complex; also called CD3 epsilon
# Procedure: Anti-ROR1/anti-CD3 T cell bispecific antibodies generated in Example 5 were analyzed by flow cytometry for their binding to human ovarian cancer cell lines PA-1 and SK-OV-3 and human CD3 expressed on human leukemic T cells Jurkat (ATCC TIB-152). Jurkat T cells were cultured in RPMI1640 medium supplemented with 10% fetal calf serum. Briefly, cultured cells were harvested, counted and cell viability is evaluated using ViCell. Viable cells were then adjusted to 2×10⁶ cells per ml in FACS Stain Buffer (BD Biosciences) containing 0.1% BSA. 100 μl of this cell suspension were further aliquoted per well into a round-bottom 96-well plate. […] After incubation for 30 min at 4° C., cells are centrifuged (5 min, 350×g), washed twice with 150 μl/well BSA-containing FACS Stain Buffer (BD Biosciences), then cells are fixed using 100 ul BD Fixation buffer per well (#BD Biosciences, 554655) at 4° C. for 20 min, resuspended in 120 μl FACS buffer and analyzed using BD FACS CantoII. Binding of the anti-ROR1/anti-CD3 T cell bispecific antibodies to human ovarian cancer cells and T cells were evaluated and the median fluorescence intensity was determined gated on either human ovarian cancer cells or CD3-expressing Jurkat T cells and plotted in histograms and dot plots. […] Median fluorescence intensity for anti-ROR1/anti-CD3 T cell bispecific antibodies in function of antibody concentrations were plotted.
# human ROR1 [2] = target: T1, human ROR1; assay: flow cytometry on PA-1 cells
# Procedure: (§1) a) The level of expression of ROR1 was measured on human ovarian cancer cell lines by flow cytometry including PA-1, COLO-704, ES-2, SK-OV-3, and OVCAR-5. Briefly, cells were harvested, washed, counted for viability, resuspended at 50,000 cells/well of a 96-well round bottom plate and incubated with Alexa488-labeled anti human ROR1 antibody for 30 min at 4° C. All ROR1 and isotype control antibodies were titrated and analyzed in final concentration range between 0.01-100 nM (0.0015-15 μg/mL). […] At the end of incubation time, cells were centrifuged (5 min at 350×g), washed twice with FACS buffer, resuspended in 100 ul FACS buffer and analyzed on a CantoII device running FACS Diva software. Expression of ROR1 was then quantified as the median fluorescence intensity (MFI) and graphs showing the MFI in function of ROR1 antibody concentrations were plotted. EC50 values were then measured using Prism software (GraphPad). […] The calculated EC50s for binding of ROR1 Mab1 and ROR1 Mab2 to SK-OV-3 are extrapolated values and may be over- or underestimated. […]
# human ROR1 [3] = target: T1, human ROR1; assay: flow cytometry on RPMI8226 cells
# Procedure: a) ROR1 expression was assessed on primary CD19⁺ CD5⁺ CLL cells by flow cytometry. Briefly, cells were harvested, washed, counted for viability, resuspended at 50 000 cells/well of a 96-well round bottom plate and incubated with Alexa488-labeled anti human ROR1 antibody at 10 μg/ml for 30 min at 4° C. (to prevent internalization). At the end of incubation time, cells were centrifuged (5 min at 350×g), washed twice with FACS buffer, resuspended in 100 ul FACS buffer and analyzed on a CantoII device running FACS Diva software.
# b) ROR1 expression was then assessed on B lymphocyte myeloma RPMI8226 cell lines by flow cytometry, using the methods described above.
# human ROR1 [4] = target: T1, human ROR1; assay: flow cytometry on SK-OV-3 cells (extrapolated value)
# Procedure: as §1
# T1 sequence (Q01973 30-937 limits assumed): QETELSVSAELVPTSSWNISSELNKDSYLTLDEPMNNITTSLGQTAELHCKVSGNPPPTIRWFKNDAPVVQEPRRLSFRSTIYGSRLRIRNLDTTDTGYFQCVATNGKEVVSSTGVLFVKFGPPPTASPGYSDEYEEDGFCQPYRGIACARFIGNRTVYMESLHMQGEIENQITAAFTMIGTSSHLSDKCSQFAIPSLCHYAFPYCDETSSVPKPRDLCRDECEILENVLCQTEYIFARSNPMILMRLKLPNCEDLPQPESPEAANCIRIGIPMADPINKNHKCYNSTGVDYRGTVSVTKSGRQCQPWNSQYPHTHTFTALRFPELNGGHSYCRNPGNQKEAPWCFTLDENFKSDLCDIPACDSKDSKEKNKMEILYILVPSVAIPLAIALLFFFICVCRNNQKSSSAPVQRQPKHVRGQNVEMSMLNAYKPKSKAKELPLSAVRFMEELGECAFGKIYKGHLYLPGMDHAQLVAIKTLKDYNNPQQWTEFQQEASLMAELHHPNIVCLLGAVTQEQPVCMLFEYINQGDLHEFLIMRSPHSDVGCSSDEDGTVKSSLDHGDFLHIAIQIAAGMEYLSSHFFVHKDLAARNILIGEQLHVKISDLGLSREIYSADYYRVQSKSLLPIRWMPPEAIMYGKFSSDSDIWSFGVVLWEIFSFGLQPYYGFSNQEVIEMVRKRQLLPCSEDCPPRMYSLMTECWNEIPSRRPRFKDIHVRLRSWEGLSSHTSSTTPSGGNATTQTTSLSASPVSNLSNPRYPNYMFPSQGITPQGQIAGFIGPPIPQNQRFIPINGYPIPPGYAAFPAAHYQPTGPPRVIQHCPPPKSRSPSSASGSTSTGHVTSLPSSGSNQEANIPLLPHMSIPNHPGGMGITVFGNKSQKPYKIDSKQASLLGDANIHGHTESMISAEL
# T2 sequence (P07766 23-207): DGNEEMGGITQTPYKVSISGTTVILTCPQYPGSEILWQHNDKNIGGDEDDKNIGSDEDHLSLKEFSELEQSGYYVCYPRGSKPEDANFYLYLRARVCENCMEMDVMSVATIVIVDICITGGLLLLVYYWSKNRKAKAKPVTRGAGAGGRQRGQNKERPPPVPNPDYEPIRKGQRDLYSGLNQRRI
Binder,"Mean EC50 (ng/mL), cell lysis of COLO-704 (n = 1), LDH release (human ROR1 [1]) [ng/mL]","Mean EC50 (ng/mL), cell lysis of OVCAR-5 (n = 1), LDH release (human ROR1 [1]) [ng/mL]","Mean EC50 (ng/mL), cell lysis of PA-1 (n = 2), LDH release (human ROR1 [1]) [ng/mL]","Mean EC50 (ng/mL), cell lysis of SKOV-3 (n = 5), LDH release (human ROR1 [1]) [ng/mL]","Mean EC50 (pM), cell lysis of COLO-704 (n = 1), LDH release (human ROR1 [1]) [pM]","Mean EC50 (pM), cell lysis of OVCAR-5 (n = 1), LDH release (human ROR1 [1]) [pM]","Mean EC50 (pM), cell lysis of PA-1 (n = 2), LDH release, PBMC E:T 10:1 (human ROR1 [1]) [pM]","Mean EC50 (pM), cell lysis of SKOV-3 (n = 5), LDH release (human ROR1 [1]) [pM]",binding result (human CD3ε),EC50 (human ROR1 [2]),EC50 (human ROR1 [3]),EC50 (human ROR1 [4])
"ROR1 Mab2-TCBcv (bispecific antibody, 2+1 TCB with charge variants, bivalent for ROR1 (Mab2) and monovalent for CD3; The chain set is printed under the name Mab2 ROR1-TCB (2+1); also called Mab2 ROR1-TCBcv; Mab2 ROR1-TCB (2+1)) heavy 1: not shown heavy 2: EVKLVESGGGLVKPGGSLKLSCAASGFTFSSYAMSWVRQIPEKRLEWVASISRGGTTYYPDSVKGRFTISRDNVRNILYLQMSSLRSEDTAMYYCGRYDYDGYYAMDYWGQGTSVTVSSASTKGPSVFPLAPSSKSTSGGTAALGCLVEDYFPEPVTVSWNSGALTSGVHTFPAVLQSSGLYSLSSVVTVPSSSLGTQTYICNVNHKPSNTKVDEKVEPKSCDKTHTCPPCPAPEAAGGPSVFLFPPKPKDTLMISRTPEVTCVVVDVSHEDPEVKFNWYVDGVEVHNAKTKPREEQYNSTYRVVSVLTVLHQDWLNGKEYKCKVSNKALGAPIEKTISKAKGQPREPQVCTLPPSRDELTKNQVSLSCAVKGFYPSDIAVEWESNGQPENNYKTTPPVLDSDGSFFLVSKLTVDKSRWQQGNVFSCSVMHEALHNHYTQKSLSLSPGK light 1: DIKMTQSPSSMYASLGERVTITCKASPDINSYLSWFQQKPGKSPKTLIYRANRLVDGVPSRFSGGGSGQDYSLTINSLEYEDMGIYYCLQYDEFPYTFGGGTKLEMKRTVAAPSVFIFPPSDRKLKSGTASVVCLLNNFYPREAKVQWKVDNALQSGNSQESVTEQDSKDSTYSLSSTLTLSKADYEKHKVYACEVTHQGLSSPVTKSFNRGEC light 2: EVQLLESGGGLVQPGGSLRLSCAASGFTFSTYAMNWVRQAPGKGLEWVSRIRSKYNNYATYYADSVKGRFTISRDDSKNTLYLQMNSLRAEDTAVYYCVRHGNFGNSYVSWFAYWGQGTLVTVSSASVAAPSVFIFPPSDEQLKSGTASVVCLLNNFYPREAKVQWKVDNALQSGNSQESVTEQDSKDSTYSLSSTLTLSKADYEKHKVYACEVTHQGLSSPVTKSFNRGEC",14.3,10.7,2.9,141,73.3,53.4,14.6,707,binds,–,–,–
"anti-ROR1 IgG1 antibody (ROR1 Mab1) (antibody, V domains shown, Used Alexa488-labelled in some assays; also called anti-ROR1 antibody; anti-ROR1 IgG antibody) VH: QEQLVESGGRLVTPGGSLTLSCKASGFDFSAYYMSWVRQAPGKGLEWIATIYPSSGKTYYATWVNGRFTISSDNAQNTVDLQMNSLTAADRATYFCARDSYADDGALFNIWGPGTLVTISS VL: ELVLTQSPSVSAALGSPAKITCTLSSAHKTDTIDWYQQLQGEAPRYLMQVQSDGSYTKRPGVPDRFSGSSSGADRYLIIPSVQADDEADYYCGADYIGGYVFGGGTQLTVTG",–,–,–,–,–,–,–,–,no binding (tested: 3 nM to 500 nM),0.87 nM and 0.13 µg/mL,0.087 nM and 0.013 µg/mL,~4.62 nM and ~0.69 µg/mL
"ROR1 Mab2 IgG (antibody, V domains shown, Tested as IgG; also called Mab 4A5) VH: EVKLVESGGGLVKPGGSLKLSCAASGFTFSSYAMSWVRQIPEKRLEWVASISRGGTTYYPDSVKGRFTISRDNVRNILYLQMSSLRSEDTAMYYCGRYDYDGYYAMDYWGQGTSVTVSS VL: DIKMTQSPSSMYASLGERVTITCKASPDINSYLSWFQQKPGKSPKTLIYRANRLVDGVPSRFSGGGSGQDYSLTINSLEYEDMGIYYCLQYDEFPYTFGGGTKLEMK",–,–,–,–,–,–,–,–,–,0.095 µg/mL and 0.64 nM,–,~358 nM and ~53.4 µg/mL

# — patent US20170306018A1 (Bristol-Myers Squibb, published 2017)
